From patent publication US20200010571A1 (Janssen / Centocor, published 2020)
Several values for one entry are separate records, joined by “and”; a condition that tells them apart may be missing. Identical values can stand only once.

Columns and labels:
[1] = molecular target: T1, rhTNF-α (recombinant human, soluble) (human, UniProt P01375 77-233); experiment: cell-based or functional assay
[2] = molecular target: T1, rhTNF-α (recombinant human, soluble); experiment: cell-based or functional assay; remark: listed apart in the source
[3] = molecular target: T1, rhTNF-α (recombinant human, soluble); experiment: cell-based or functional assay; remark: listed apart in the source
[4] = molecular target: protease-resistant form of human transmembrane TNF-α (lacks amino acids Val1 to Pro12) overexpressed by K2 … (human, UniProt P01375 1-233); experiment: cell-based or functional assay
[5] = molecular target: native (endogenous) human TNF-α (human, UniProt P01375 77-233); experiment: cell-based or functional assay
cynomolgus TNF-α [6] = molecular target: T2, cynomolgus TNF-α (cynomolgus, UniProt P79337 77-233); experiment: cell-based or functional assay
[7] = molecular target: T3, human IL-17A (recombinant) (human, UniProt Q16552 24-155); experiment: cell-based or functional assay
[8] = molecular target: T3, human IL-17A (recombinant); experiment: cell-based or functional assay; remark: listed apart in the source
[9] = molecular target: T4, recombinant human IL-17A/F heterodimer (human, UniProt Q16552 24-155; Q96PD4 31-163); experiment: cell-based or functional assay
[10] = molecular target: T4, recombinant human IL-17A/F heterodimer; experiment: cell-based or functional assay; remark: listed apart in the source
cynomolgus IL-17A [11] = molecular target: T5, cynomolgus IL-17A (cynomolgus, UniProt Q16552 24-155 (human entry), limits assumed); experiment: cell-based or functional assay
T5 chain: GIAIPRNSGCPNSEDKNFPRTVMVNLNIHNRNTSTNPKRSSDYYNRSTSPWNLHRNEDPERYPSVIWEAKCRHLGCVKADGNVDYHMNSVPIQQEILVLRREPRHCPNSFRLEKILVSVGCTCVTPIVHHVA

cynomolgus IL-17A [12] = molecular target: T5, cynomolgus IL-17A; experiment: cell-based or functional assay
recombinant human IL-17F = molecular target: T6, recombinant human IL-17F (human, UniProt Q96PD4 31-163); experiment: binding to rhIL-17A in the absence or presence of IL-17F
T6 sequence: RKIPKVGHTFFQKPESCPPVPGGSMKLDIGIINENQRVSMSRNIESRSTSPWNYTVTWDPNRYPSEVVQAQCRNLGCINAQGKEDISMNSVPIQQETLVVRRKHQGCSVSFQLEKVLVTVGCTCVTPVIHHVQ

mouse TNF-α = molecular target: T7, mouse TNF-α (mouse, UniProt P06804 80-235); experiment: SPR (Biacore 3000), mAb captured by anti-IgG Fc, antigen in solution
T7 sequence: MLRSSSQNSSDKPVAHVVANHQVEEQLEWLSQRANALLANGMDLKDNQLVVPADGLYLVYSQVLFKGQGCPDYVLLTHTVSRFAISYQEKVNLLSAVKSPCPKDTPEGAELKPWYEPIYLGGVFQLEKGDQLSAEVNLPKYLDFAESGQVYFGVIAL

rat TNF-α = molecular target: T8, rat TNF-α (rat, UniProt P16599 80-235); experiment: as above
T8 sequence: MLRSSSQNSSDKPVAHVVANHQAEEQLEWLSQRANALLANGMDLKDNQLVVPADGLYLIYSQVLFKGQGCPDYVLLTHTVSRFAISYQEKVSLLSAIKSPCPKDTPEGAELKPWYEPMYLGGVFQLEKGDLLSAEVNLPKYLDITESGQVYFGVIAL

[13] = molecular target: T3, human IL-17A (recombinant); experiment: competition ELISA: biotinylated rhIL-17A binding to plate-coated rhIL-17RA-Fc
cynomolgus TNF-α [14] = molecular target: T2, cynomolgus TNF-α; experiment: SPR (Biacore 3000), mAb captured by anti-IgG Fc, antigen in solution, 1:1 Langmuir
cynomolgus IL-17A [15] = molecular target: T5, cynomolgus IL-17A; experiment: as above
mouse IL-17A [16] = molecular target: T9, mouse IL-17A (mouse, UniProt Q62386 26-158); experiment: as above
T9 sequence: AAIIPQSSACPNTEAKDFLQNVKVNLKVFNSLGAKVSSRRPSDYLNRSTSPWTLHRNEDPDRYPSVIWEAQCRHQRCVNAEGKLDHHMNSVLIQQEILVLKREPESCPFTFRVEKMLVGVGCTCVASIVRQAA

rat IL-17A [17] = molecular target: T10, rat IL-17A (rat, UniProt Q61453 18-150); experiment: as above
T10 chain: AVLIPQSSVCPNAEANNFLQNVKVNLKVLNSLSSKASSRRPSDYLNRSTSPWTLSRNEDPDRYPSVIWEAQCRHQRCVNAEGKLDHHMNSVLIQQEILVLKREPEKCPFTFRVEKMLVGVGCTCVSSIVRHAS

[18] = molecular target: T1, rhTNF-α (recombinant human, soluble); experiment: SPR (Biacore 3000), mAb captured by anti-IgG Fc, antigen in solution, 25 C, 1:1 Langmuir
[19] = molecular target: T3, human IL-17A (recombinant); experiment: as above
[20] = molecular target: T3, human IL-17A (recombinant); experiment: competition ELISA: biotinylated rhIL-17A binding to plate-coated rhIL-17RA-Fc; Experiment 2; 95% CI 0.1474-0.1920
[21] = molecular target: T3, human IL-17A (recombinant); experiment: competition ELISA: biotinylated rhIL-17A binding to plate-coated rhIL-17RA-Fc; Experiment 3; 95% CI 0.2433-0.2757
[22] = molecular target: T3, human IL-17A (recombinant); experiment: competition ELISA: biotinylated rhIL-17A binding to plate-coated rhIL-17RA-Fc; Experiment 1; 95% CI 0.09343-0.1160
mouse IL-17A [23] = molecular target: T9, mouse IL-17A; experiment: SPR (Biacore 3000)
rat IL-17A [24] = molecular target: T10, rat IL-17A; experiment: SPR (Biacore 3000)

B1: mAb 9762 (bispecific anti-TNF-α/IL-17A antibody, IgG1) (bispecific antibody)
heavy 1: not shown
light 1: not shown
heavy 2: not shown
light 2: QSVLTQPPSVSVAPGQTARISCSGDNLGDKYANWYQQKPGQAPVLVIYDDIDRPSGIPERFSGSNSGNTATLTISGTQAEDEADYYCGSYDFFLGMIVFGGGTKLTVLGQPKAAPSVTLFPPSSEELQANKATLVCLISDFYPGAVTVAWKADSSPVKAGVETTTPSKQSNNKYAASSYLSLTPEQWKSHRSYSCQVTHEGSTVEKTVAPTECS
fold of IC50 against the parental anti-TNF-α antibodies mAb 9809 and mAb 6696; rhTNF-α-induced cytotoxicity in WEHI-164 cells [1]: ~3 fold
IC50 (nM); WEHI-164 cells cytotoxicity mediated by soluble rhTNF-α; Experiment 1 [2]: 1.28 nM
IC50 (nM); WEHI-164 cells cytotoxicity mediated by soluble rhTNF-α; Experiment 2 [2]: 2.07 nM
IC50 (nM); WEHI-164 cells cytotoxicity mediated by soluble rhTNF-α; Experiment 3 [2]: 0.631 nM
IC50 (nM); KYM-1D4 cells, cytotoxicity mediated by soluble rhTNF-α; Experiment 1 [3]: 0.152 nM
IC50 (nM); KYM-1D4 cells, cytotoxicity mediated by soluble rhTNF-α; Experiment 2 [3]: 0.343 nM
IC50 (nM); KYM-1D4 cells, cytotoxicity mediated by soluble rhTNF-α; Experiment 3 [3]: 0.169 nM
IC50 (nM); KYM-1D4 cells, cytotoxicity mediated by membrane bound human TNF-α; Experiment 1 [4]: 0.82 nM
IC50 (nM); KYM-1D4 cells, cytotoxicity mediated by membrane bound human TNF-α; Experiment 2 [4]: 0.966 nM
IC50 (nM); KYM-1D4 cells, cytotoxicity mediated by membrane bound human TNF-α; Experiment 3 [4]: 0.425 nM
IC50 (nM); KYM-1D4 cells, cytotoxicity mediated by endogenous soluble TNF-α; Experiment 1 [5]: 0.346 nM
IC50 (nM); KYM-1D4 cells, cytotoxicity mediated by endogenous soluble TNF-α; Experiment 2 [5]: 0.327 nM
IC50 (nM); KYM-1D4 cells, cytotoxicity mediated by endogenous soluble TNF-α; Experiment 3 [5]: 0.197 nM
IC50 (nM); Inhibition of cyno TNF-α mediated cytotoxicity in WEHI-164 cells; Experiment 1 (cynomolgus TNF-α [6]): 4.42 nM
IC50 (nM); Inhibition of cyno TNF-α mediated cytotoxicity in WEHI-164 cells; Experiment 2 (cynomolgus TNF-α [6]): 20.6 nM
IC50 (nM); Inhibition of cyno TNF-α mediated cytotoxicity in WEHI-164 cells; Experiment 3 (cynomolgus TNF-α [6]): 9.29 nM
IC50 (µg/mL); Inhibition of native IL-17A mediated GROα production by NHDF; Experiment 1 [7]: 0.081 µg/mL
IC50 (µg/mL); Inhibition of native IL-17A mediated GROα production by NHDF; Experiment 2 [7]: 0.0648 µg/mL
IC50 (µg/mL); Inhibition of native IL-17A mediated GROα production by NHDF; Experiment 3 [7]: 0.0508 µg/mL
IC50 (µg/mL); Inhibition of native IL-17A mediated IL-6 production by NHDF; Experiment 1 [8]: 0.0501 µg/mL
IC50 (µg/mL); Inhibition of native IL-17A mediated IL-6 production by NHDF; Experiment 2 [8]: 0.0445 µg/mL
IC50 (µg/mL); Inhibition of native IL-17A mediated IL-6 production by NHDF; Experiment 3 [8]: 0.049 µg/mL
IC50 (µg/mL); Inhibition of IL-17A/F mediated GROα production by NHDF; Experiment 1 [9]: 0.549 µg/mL
IC50 (µg/mL); Inhibition of IL-17A/F mediated GROα production by NHDF; Experiment 2 [9]: 0.436 µg/mL
IC50 (µg/mL); Inhibition of IL-17A/F mediated GROα production by NHDF; Experiment 3 [9]: 0.392 µg/mL
IC50 (µg/mL); Inhibition of IL-17A/F mediated IL-6 production by NHDF; Experiment 1 [10]: 0.135 µg/mL
IC50 (µg/mL); Inhibition of IL-17A/F mediated IL-6 production by NHDF; Experiment 2 [10]: 0.174 µg/mL
IC50 (µg/mL); Inhibition of IL-17A/F mediated IL-6 production by NHDF; Experiment 3 [10]: 0.131 µg/mL
IC50 (µg/mL); Inhibition of cyno IL-17A mediated GROα production by NHDF; Experiment 1 (cynomolgus IL-17A [11]): 0.299 µg/mL
IC50 (µg/mL); Inhibition of cyno IL-17A mediated GROα production by NHDF; Experiment 2 (cynomolgus IL-17A [11]): 0.329 µg/mL
IC50 (µg/mL); Inhibition of cyno IL-17A mediated GROα production by NHDF; Experiment 3 (cynomolgus IL-17A [11]): 0.137 µg/mL
IC50 (µg/mL); Inhibition of cyno IL-17A mediated IL-6 production by NHDF; Experiment 2 (cynomolgus IL-17A [12]): 0.0784 µg/mL
IC50 (µg/mL); Inhibition of cyno IL-17A mediated IL-6 production by NHDF; Experiment 3 (cynomolgus IL-17A [12]): 0.0583 µg/mL
binding result (recombinant human IL-17F): no binding
binding result (mouse TNF-α): no binding (tested: up to 100 nM)
binding result (rat TNF-α): no binding (tested: up to 100 nM)
fold IC50 against the parental anti-IL-17A antibodies mAb 4782 and mAb 7206 [13]: ~3 fold
Kd (cynomolgus TNF-α [14]): 0.399 nM and 0.186 nM
koff (cynomolgus TNF-α [14]): 0.000103 s⁻¹ and 0.000127 s⁻¹
kon (cynomolgus TNF-α [14]): 259000 M⁻¹ s⁻¹ and 681000 M⁻¹ s⁻¹
Kd (cynomolgus IL-17A [15]): 0.0236 nM and 0.0318 nM
koff (cynomolgus IL-17A [15]): 3.66e-05 s⁻¹ and 4.57e-05 s⁻¹
kon (cynomolgus IL-17A [15]): 1.55e+06 M⁻¹ s⁻¹ and 1.43e+06 M⁻¹ s⁻¹
Kd (mouse IL-17A [16]): 0.997 nM
koff (mouse IL-17A [16]): 0.00103 s⁻¹
kon (mouse IL-17A [16]): 1.03e+06 M⁻¹ s⁻¹
Kd (rat IL-17A [17]): 15.4 nM
koff (rat IL-17A [17]): 0.00316 s⁻¹
kon (rat IL-17A [17]): 205000 M⁻¹ s⁻¹
Kd [18]: 0.0188 nM and 0.0211 nM
koff [18]: 3.81e-05 s⁻¹ and 3.63e-05 s⁻¹
kon [18]: 2.02e+06 M⁻¹ s⁻¹ and 1.72e+06 M⁻¹ s⁻¹
Kd [19]: 0.022 nM and 0.0453 nM
koff [19]: 4.15e-05 s⁻¹ and 3.99e-05 s⁻¹
kon [19]: 1.88e+06 M⁻¹ s⁻¹ and 882000 M⁻¹ s⁻¹
IC50 [20]: 0.168 µg/mL
IC50 [21]: 0.259 µg/mL
IC50 [22]: 0.104 µg/mL

B2: mAb 6785 (original parental anti-IL-17A mAb) (antibody, V domains shown)
VH: QVQLLESGGGLVQPGGSLRLSCAASGFTFSSYAMSWVRQAPGKGLEWVSTISLTSGFTYYADSVKGRFTISRDNSKNTLYLQMNSLRAEDTAVYYCARQLTLDVWGQGTLVTVSS
VL: QSVLTQPPSVSVAPGQTARISCSGDNLGDKYANWYQQKPGQAPVLVIYDDIDRPSGIPERFSGSNSGNTATLTISGTQAEDEADYYCGSYDFFLGMIVFGGGTKLTVL
binding result (mouse IL-17A [23]): binds
binding result (rat IL-17A [24]): binds
Kd (cynomolgus IL-17A [15]): 0.0286 nM
koff (cynomolgus IL-17A [15]): 3.68e-05 s⁻¹
kon (cynomolgus IL-17A [15]): 1.29e+06 M⁻¹ s⁻¹
Kd [19]: 0.0309 nM
koff [19]: 4.79e-05 s⁻¹
kon [19]: 1.55e+06 M⁻¹ s⁻¹
